The series is described as follows: protease stability score; higher = more stable; yeast display proteolysis, trypsin and chymotrypsin.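 Also: relative to predicted unfolded state with 0 unfolded-like and 1 meaning tenfold more protease.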
On to “DEDEELDRKFTTLFLHLWETGDEDTMRDLLDPDVRLLIIYNGRHIEVHGREHMSKFLKDFWRKFKNLRIHVKHVEAIDGVVHISGETRFDGRSTLVQIDIDVVDGRIKSERYIFR”, for which the protease stability score stood at 1.76.
The sequence “SEDDEQAHRTIEIWLRASRTGNEEELERLADPHDKIEFNGREHHGREEFLKIMKHLRVHHMDVRDRTLIGDKINIDVILDLHFNGRRHIIELTTILVKINGRWFFKSWIFI” registered a protease stability score of 1.21.
Next, “DHEENMLKLMVTLWTQSLRTGDEDTLFRLMDPHARDVVGDKEFHGREEVKHHLRELLLEIRIEDSHVEDFRVYDGVAEIDTRQHGIFNGKRLEYETRILVLKVNGRWIFTHVERR”: 0.592; “HEEEKHAHEVLQLFIESVETGDWRMWEHLADPHVRLEVNGQEVIGREDALRWLEELLKKLGVDHFKLELEDHHIQGEKVRSITRSHIRVNGVRIDRTTHVIIVVINGRLKHIEVRER”: 0.204; “SEIEHNLRLAEELLEKVTQTGNEELLHDLIDPNVRFYINGRDFVGREKNIKVFRSWGIDRVHFESEHIDIQGNKINFHGQINVNGKSMDTQIIAVKVNGRWLIKESWVD”: 0.565.
Next, “SESEEEARRKSEVFLRHLRTGDFREFIKLADPHVLNIFPGVNHVGREHWRRLELHLRRREFRVHDERLDIQGDKVRINIDLETDVEFDGKELKFRTLILIEAEKVDGRWRVTEVSEEPR”: 0.524; “HEEEERLKEVLELVVESFRTGDFNYLKNLIDPNVRVTVGDKDVHGRDFFVRIMSEMRVTHYEFRHVERFNGQAHIDGELDIRIGDKRERHEIKIITLKINGKWYMETLIIQ”: 1.18.
The same measure for “DEDEEQLRKWTRLTWRDMITGNEDSLHRLFDPHTRLDIDGVDVHGMESVSRKISDEMKRFDHVDFHLHDMRIFNGRAHIDGRLRFHINGVHLERREVIVILKINGQWFNEQISYK”: 0.196; for “DEDFRDAKHMWELYLELIHTGDEERLRKLMDPNVRVEVGDKELHGRHHYIKWVREMRMRIEDVRIRTVRNINGVVHIHGELRGEYVYGDKRVHFETEVELVLLKVNGRWKIHEEHIH”: 1.75; for “DSVEELAKRSVELLLRLLKTGDEEEISRLADPDTRLVIGEFEFHGMEKVEHSWRKMGFTIHEWRIHDVEVQGDKLIVHVHQNIEFNGVHEEFRSIIIARKINGRWRLKSLHWK”: 1.67.
Sequence “DDHHEVARKIFFHHYNITQTGDEESIERLLDPNVRIIIDGKYIHGWEEILRLIRHIRIHRFNVHRVELQGEKLILDGFTDGSFDGKRITTTIDIYILKIDGRWFIQQIELR” gave a protease stability score of 1.46.
Next, “HEEEEFSRRLAEMLFEFWLTGDEDALERLIDPNARVEMSINGRDFHTHGRDHIIEWVRKIKNLVFRIRRVEIQGEKIILDGEFDVNGVRTRWKLNLVFIDGVVHRLNIIHV”: 1.72; “DEEKEEADEHIRLLIDVMKTGDEDSMRRLIDPNVRIRVDGKEDHGMEKLVHLLRHARYREVRIEHVEHQGEKVIIHYKAWVEIDGQENHKKWHFIVTKVDGKWTLKEVSVH”: 2.3.
Next, “DEEDEDAHYALKLLLKMVHTGNEEDMQRYLDPNVRVEQGDYHYHGREASEIIKNRFKNVKVKVDHYEIQGEYVNLKVTIDVNGKHKQSTIIVHKFDGRWLIEKIIII”: 2.48; “DETFEWANIAIEHLIHSARTGDEKTFEEMADPDTRFLYNGQIIIGREEVNKMLSTVLREIRLEDVQVKRIEVYDGRVHSDMTRQGEFDGRHFTSKTEFIVHKVDGRWSIKEIRIT”: 0.89.
Next, “DELEEILEELFRRMLEWLRTGDEEAMSKLADPHYKLLWNGREHVGREVILERLEKINQHLRIRHIHIHEIRFIDGRVESDTRVDGEVNGRRTEYTQKVIIFIVNGRFKFLEIQLR”: 1.71; “DEETEEIELAFHFFQHAYETGNEEVLMELADPDVKIDVNGRKLHGRERVWKFLIHHWHHLGIKHIHMDRIEIYGNKVVVDGEIKYGDKSDETIMYVVKVDGRWKLEMIEVK”: 1.47; “SEDEEYAKNVDKIMRESLMTGDEDSVERMFDPHAKVIVGDKEYHGREEMVRHIKWFLEHARIRDLRMRDVRIYGDKIEIDVEVDIDVNGKRIQRKEVIYVVKVNGKWIVEYIEIK”: 1.54.
The sequence “DEDDEKEKFLLELLLEALKTGDWQIFEDLADPHMKFIFNGREYHGMETFSRLMEEFLKRFPNLRIRRIEIEDHHKQGNKVELDARLYSSQGNKRLNHKMILISEKINGRWLIHSLSIE” showed a protease stability score of 2.61.

The record behind these values is the NTF2 design screens of Basanta et al. (2020).
